The values below are quoted from earlier work in paper PMC3499705.

In one series the target is PHM PHM (Homo sapiens) (UniProt P01282). As to the kind of experiment: intrinsic tryptophan fluorescence.
Series [1] deals with VIP2-28 2-28 (Homo sapiens) (UniProt P01282). In words: intrinsic tryptophan fluorescence.
Series [2] has as its target Helodermin (Heloderma suspectum) (UniProt P04204). As to the kind of experiment: intrinsic tryptophan fluorescence.
Series [3] deals with PACAP27 PACAP27 (Homo sapiens) (UniProt P18509). As to the kind of experiment: intrinsic tryptophan fluorescence.
In series [4] the target is VIP6-28 6-28 (Homo sapiens) (UniProt P01282). As to the kind of experiment: intrinsic tryptophan fluorescence.
In a further series the target is Secretin (Homo sapiens) (UniProt P09683). In words: intrinsic tryptophan fluorescence.
A further series has as its target GRF (Homo sapiens) (UniProt P01286). In words: intrinsic tryptophan fluorescence.
The target of the next series is VIP (Homo sapiens) (UniProt P01282).
The target of series [5] is VPAC1 receptor N-terminal ectodomain (Homo sapiens) (UniProt P32241). As to the kind of experiment: intrinsic tryptophan fluorescence.
For series [6] the target is unchanged.

Like-named read-outs stand apart in the source and are kept apart here.

As to “VPAC1 receptor 31-144 (from UniProt P32241)”, the Kd was 8 µM with PHM PHM (Homo sapiens); 0.85 µM in series [1]; 2.54 µM in series [2]; 0.57 µM in series [3]; 0.85 µM in [4]; 16 µM with Secretin (Homo sapiens). Moreover, the figures for the Kd with GRF (Homo sapiens) and in the series with VIP (Homo sapiens) were 10.1 µM and 0.54 µM, respectively.

VIP2-28 2-28 (from UniProt P01282): the Kd in series [5] is 0.85 µM.

With GRF (from UniProt P01286), the Kd in series [5] was 10.1 µM.

For PHM PHM (from UniProt P01282), in series [5], the Kd was 8 µM.

Consider secretin (from UniProt P09683), for which, in [5], the Kd was 16 µM.

As for VIP (from UniProt P01282), in series [6], the Kd was 0.54 µM.

As for helodermin (from UniProt P04204), the Kd in series [5] was 2.54 µM.

As for PACAP27 PACAP27 (from UniProt P18509), the Kd in series [5] is 0.57 µM.
